The record followed here is patent publication US20240301071A1 (Alector, published 2024).

Residue numbers refer to the chain shown, from its start.

For experiment [1], the target named is T1, histidine-tagged human SIRPA v1 (Novoprotein) (human, UniProt P78324 31-370, limits assumed).
T1 construct: bought, soluble; also called huSIRPA; soluble huSIRPA; not shown: histidine tag
Briefly: BLI (Octet), antibody on anti-human IgG Fc sensor, His-huSIRPA in solution, single-curve 1:1 fit. How it is done: (§1) Initial characterization of affinity matured anti-SIRPA antibodies disclosed herein comprised acquiring antigen affinity measurements using bio-layer interferometry (BLI) on a Pall ForteBio Octet RED96 instrument. Immobilized anti-mouse IgG Fc or anti-human IgG Fc antibodies captured murine anti-SIRPA 3F79 antibody and humanized anti-SIRPA 3F79 antibody on biosensors, respectively. Single cycle kinetics were performed with 25 nM huSIRPA [which variant?] or 50 nM huSIRPB 1 flowed over captured antibody 3F79 to record traces. Data analysis was performed using ForteBio Data Analysis Software, version 9.0. Standard kinetic buffer (PBS, 0.100 BSA, 0.02% Tween-20, pH 7.2) was used for the assay and for preparing reagents. […] 50 nM of histidine-tagged human SIRPA vi or human SIRPB1 (Novoprotein, Summit, NJ, USA) were then bound to the captured anti-SIRPA antibody coated surface (200 s association time, 900 s dissociation time). […] Single-curve kinetic analysis was performed using a 1:1 interaction model to extract association and dissociation rate constants (ka and kd, respectively) for each antibody. Affinity constants (KD) were calculated from the ratio kd/ka.
(In general: Biolayer interferometry detects binding as a change in optical thickness at a sensor tip.)

Experiment [2] deals with T2, human SIRPA v1 on BWZ cells (BWZ-huSIRPA) (human, UniProt P78324 31-504).
T2 construct: also called BWZ cells overexpressing human SIRPA; BWZ-huSIRPA v1 cells
T2 sequence (P78324 31-504): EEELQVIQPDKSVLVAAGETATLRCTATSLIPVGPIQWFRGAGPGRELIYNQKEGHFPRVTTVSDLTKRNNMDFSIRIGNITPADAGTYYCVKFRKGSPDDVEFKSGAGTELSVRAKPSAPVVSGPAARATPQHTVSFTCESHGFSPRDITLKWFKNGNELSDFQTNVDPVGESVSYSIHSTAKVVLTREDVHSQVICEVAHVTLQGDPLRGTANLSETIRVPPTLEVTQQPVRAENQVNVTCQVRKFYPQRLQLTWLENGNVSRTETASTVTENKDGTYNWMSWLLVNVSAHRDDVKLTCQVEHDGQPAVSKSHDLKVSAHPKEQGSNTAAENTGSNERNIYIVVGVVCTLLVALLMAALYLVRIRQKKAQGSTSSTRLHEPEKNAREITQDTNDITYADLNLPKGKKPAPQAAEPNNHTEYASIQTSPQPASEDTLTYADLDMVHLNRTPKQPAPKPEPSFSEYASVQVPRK
Briefly: flow cytometry titration on BWZ-huSIRPA cells, 4 C. How it is done:
After addition of fluorescently labeled secondary antibody and brief washing steps, MFI values as a function of titrated antibody concentration was recorded via FACS analysis. […] Receptor bound antibodies were detected by staining cells with anti-human IgG PE secondary antibody. Curves were fit using nonlinear regression analysis with Graphpad Prism 6 software.
Background: Flow cytometry measures light scatter and fluorescence of single cells or particles in a stream.

For experiment [3], the target named is T3, human SIRPA on human macrophages (primary monocyte-derived macrophages; U937 line) (human, UniProt P78324 31-504). Briefly: cell-based or functional assay.
T3 sequence (P78324 31-370): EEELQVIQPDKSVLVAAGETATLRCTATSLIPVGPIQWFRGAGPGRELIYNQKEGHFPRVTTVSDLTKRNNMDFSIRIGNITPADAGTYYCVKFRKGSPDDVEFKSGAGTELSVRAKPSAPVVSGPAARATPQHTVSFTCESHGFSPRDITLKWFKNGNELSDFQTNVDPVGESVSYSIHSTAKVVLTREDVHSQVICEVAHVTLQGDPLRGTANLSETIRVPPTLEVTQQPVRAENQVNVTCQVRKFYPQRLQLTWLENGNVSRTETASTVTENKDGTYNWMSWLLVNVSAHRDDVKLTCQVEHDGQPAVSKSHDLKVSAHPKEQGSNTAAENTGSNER
Experiment [4] concerns the target T1, histidine-tagged human SIRPA v1 …. Briefly: BLI (Octet). The protocol:
as §1

Experiment [5] concerns the target T3, human SIRPA on human macrophages …. Briefly: cell-based or functional assay. This is another data set of the same source.

T1 sequence (P78324 31-370 limits assumed): as the sequence (P78324 31-370) above

B1: 3F9-1 (antibody, human IgG1, V domains shown)
VH: EVQLLESGGGLVQPGGSLRLSCAASGFTFSSYAMSWVRQAPGKGLEWVATISEYGGSYTYYAESVKGRFTISRDNSKNTLYLQMNSLRAEDTAVYYCARPPYDDYYGGFAYWGQGTLVTVSS
VL: DIQLTQSPSSLSASVGDRVTITCRASKSVSSGGYSYMHWYQQKPGKAPKLLIYLASNLESGVPSRFSGSGSGTDFTLTISSVQPEDFATYYCQHNRELPSTFGQGTKLEIK
notes: also called mAb 3F9-1
For the molecule B1, in experiment [1], binding was characterised by a dissociation constant (Kd) of 2.09 nM, the koff was found to be 0.000222 s⁻¹ and the kon was 106000 M⁻¹ s⁻¹.

B2: 3F9-25 (antibody, human IgG1, V domains shown)
VH: B1 VH with A110Q
VL: B1 VL with S100W
notes: also called mAb 3F9-25
In the case of B2, in experiment [1], the Kd was determined as 1.06 nM, the koff is 0.000162 s⁻¹ and the kon came to 153000 M⁻¹ s⁻¹. The same molecule showed a concentration for a half-maximal effect (EC50) in experiment [2] of 0.96 nM.

B3: 3F9-24 (antibody, human IgG1, V domains shown)
VH: B1 VH with A110Q
VL: B1 VL with S100G
notes: also called mAb 3F9-24
Regarding B3, in experiment [1], binding was characterised by a dissociation constant (Kd) of 1.07 nM, the koff was 0.000155 s⁻¹ and the kon is 144000 M⁻¹ s⁻¹.

B4: 3F9-2 (antibody, human IgG1, V domains shown)
VH: B1 VH
VL: B1 VL with S100C
notes: also called mAb 3F9-2
In experiment [1], B4 gave a Kd of 2.06 nM, a koff of 0.000222 s⁻¹ and a kon of 108000 M⁻¹ s⁻¹.

B5: 3F9-20 (antibody, human IgG1, V domains shown)
VH: B1 VH with A110Q
VL: B1 VL with S100P
notes: also called mAb 3F9-20
Turning to B5, in experiment [3], the “SIRPA IC50 (nM), downregulation on U937 cells” value came to 0.152 nM and the “SIRPA Max % DR, U937 cells” value came to 75%. In experiment [1], this molecule displayed a Kd of 0.85 nM, a koff of 0.000128 s⁻¹ and a kon of 150000 M⁻¹ s⁻¹. Further, the “fold increase in affinity relative to parental h3F9” value in experiment [4] was around 10 fold. Moreover, in experiment [5], the “Phagocytosis, fold increase over baseline activity” value stood at 1.62 fold; the “SIRPA IC50 (nM), downregulation on human primary macrophages” value amounted to 0.0283 nM; the “SIRPA Max % DR, human primary macrophages” value came out at 90%. This molecule also registered an EC50 in experiment [2] of 0.49 nM.

B6: 3F9-3 (antibody, human IgG1, V domains shown)
VH: B1 VH
VL: B1 VL with S100I
notes: also called mAb 3F9-3
In experiment [1], B6 returned a dissociation constant (Kd) of 4.43 nM, a koff of 0.000416 s⁻¹ and a kon of 93900 M⁻¹ s⁻¹.

B7: 3F9-17 (antibody, human IgG1, V domains shown)
VH: B1 VH with A110R
VL: B1 VL with S100W
notes: also called mAb 3F9-17
As to B7, in experiment [1], the Kd is 1.7 nM, the koff came to 0.000238 s⁻¹ and the kon was 140000 M⁻¹ s⁻¹. In experiment [2], it took 0.61 nM to reach a half-maximal effect (EC50).

B8: 3F9-7 (antibody, human IgG1, V domains shown)
VH: B1 VH
VL: B1 VL with S100A
notes: also called mAb 3F9-7
In experiment [1], B8 returned a Kd of 1.81 nM, a koff of 0.00018 s⁻¹ and a kon of 99200 M⁻¹ s⁻¹.

B9: 3F9-18 (antibody, human IgG1, V domains shown)
VH: B1 VH with A110Q
VL: B1 VL
notes: also called mAb 3F9-18
Turning to B9, in experiment [3], the “SIRPA IC50 (nM), downregulation on U937 cells” value was found to be 2.19 nM and the “SIRPA Max % DR, U937 cells” value is 71%. In experiment [1], binding was characterised by a dissociation constant (Kd) of 0.419 nM, the koff was found to be 5.74e-05 s⁻¹ and the kon was found to be 137000 M⁻¹ s⁻¹. In addition, in experiment [4], the “fold increase in affinity relative to parental h3F9” value was around 10 fold. Also, in experiment [5], the “Phagocytosis, fold increase over baseline activity” value turned out to be 1.52 fold; the “SIRPA IC50 (nM), downregulation on human primary macrophages” value was determined as 0.0174 nM; the “SIRPA Max % DR, human primary macrophages” value was 90%. In experiment [2], this molecule displayed an EC50 of 0.51 nM.

B10: 3F9-23 (antibody, human IgG1, V domains shown)
VH: B1 VH with A110Q
VL: B1 VL with S100A
notes: also called mAb 3F9-23
In experiment [1], B10 registered a Kd of 0.539 nM, a koff of 9.11e-05 s⁻¹ and a kon of 169000 M⁻¹ s⁻¹. Besides, in experiment [4], the “fold increase in affinity relative to parental h3F9” value is around 10 fold.

B11: 3F9-21 (antibody, human IgG1, V domains shown)
VH: B1 VH with A110Q
VL: B1 VL with S100T
notes: also called mAb 3F9-21
In experiment [1], B11 yielded a Kd of 1.03 nM, a koff of 0.000152 s⁻¹ and a kon of 148000 M⁻¹ s⁻¹. This molecule also showed an EC50 in experiment [2] of 0.64 nM.

B12: 3F9-15 (antibody, human IgG1, V domains shown)
VH: B1 VH with A110R
VL: B1 VL with S100A
notes: also called mAb 3F9-15
As for B12, in experiment [1], the Kd was 6.28 nM, the koff was 0.000362 s⁻¹ and the kon is 57600 M⁻¹ s⁻¹.

B13: 3F9-10 (antibody, human IgG1, V domains shown)
VH: B1 VH with A110R
VL: B1 VL
notes: also called mAb 3F9-10
As to B13, in experiment [1], the Kd is 1.51 nM, the koff came to 0.000201 s⁻¹ and the kon came out at 134000 M⁻¹ s⁻¹.

B14: 3F9-5 (antibody, human IgG1, V domains shown)
VH: B1 VH
VL: B1 VL with S100T
notes: also called mAb 3F9-5
In experiment [1], B14 showed a Kd of 2.95 nM, a koff of 0.000276 s⁻¹ and a kon of 93600 M⁻¹ s⁻¹.

B15: 3F9-6 (antibody, human IgG1, V domains shown)
VH: B1 VH
VL: B1 VL with S100V
notes: also called mAb 3F9-6
In experiment [1], B15 had a Kd of 1.65 nM, a koff of 0.000192 s⁻¹ and a kon of 116000 M⁻¹ s⁻¹.

B16: 3F9-4 (antibody, human IgG1, V domains shown)
VH: B1 VH
VL: B1 VL with S100P
notes: also called mAb 3F9-4
In experiment [1], B16 returned a Kd of 1.79 nM, a koff of 0.000203 s⁻¹ and a kon of 113000 M⁻¹ s⁻¹.

B17: 3F9-9 (antibody, human IgG1, V domains shown)
VH: B1 VH
VL: B1 VL with S100W
notes: also called mAb 3F9-9
B17: in experiment [1], binding was characterised by a dissociation constant (Kd) of 3.38 nM, the off-rate constant (koff) was determined as 0.000302 s⁻¹ and the kon came to 89400 M⁻¹ s⁻¹.

B18: 3F9-16 (antibody, human IgG1, V domains shown)
VH: B1 VH with A110R
VL: B1 VL with S100G
notes: also called mAb 3F9-16
Turning to B18, in experiment [1], the Kd is 1.27 nM, the koff came to 0.000151 s⁻¹ and the kon was 119000 M⁻¹ s⁻¹.

B19: 3F9-8 (antibody, human IgG1, V domains shown)
VH: B1 VH
VL: B1 VL with S100G
notes: also called mAb 3F9-8
Turning to B19, in experiment [1], the Kd was found to be 3.6 nM, the koff turned out to be 0.000276 s⁻¹ and the kon stood at 76600 M⁻¹ s⁻¹.

B20: 3F9-11 (antibody, human IgG1, V domains shown)
VH: B1 VH with A110R
VL: B1 VL with S100I
notes: also called mAb 3F9-11
In experiment [1], B20 showed a Kd of 1.43 nM, a koff of 0.000192 s⁻¹ and a kon of 134000 M⁻¹ s⁻¹.

B21: 3F9-13 (antibody, human IgG1, V domains shown)
VH: B1 VH with A110R
VL: B1 VL with S100T
notes: also called mAb 3F9-13
Take B21: in experiment [1], the Kd came to 1.38 nM, the koff amounted to 0.000201 s⁻¹ and the kon amounted to 146000 M⁻¹ s⁻¹.

B22: 3F9-19 (antibody, human IgG1, V domains shown)
VH: B1 VH with A110Q
VL: B1 VL with S100I
notes: also called mAb 3F9-19
As to B22, in experiment [1], the Kd is 1.29 nM, the dissociation rate constant (koff) stood at 0.000181 s⁻¹ and the kon was 141000 M⁻¹ s⁻¹.

B23: 3F9-12 (antibody, human IgG1, V domains shown)
VH: B1 VH with A110R
VL: B1 VL with S100P
notes: also called mAb 3F9-12
B23: in experiment [1], the Kd was 0.429 nM, the koff is 5.96e-05 s⁻¹ and the kon came to 139000 M⁻¹ s⁻¹. In experiment [4], the “fold increase in affinity relative to parental h3F9” value is around 10 fold.

In general, Kd refers to the constant that tells how readily two partners part at equilibrium. Lower therefore signals tighter binding. As usually defined, the koff is the first-order rate constant of dissociation. A low value points to slow dissociation. A word on the kon: it is a measure of how fast the partners come together. Read a low kon as slower complex formation. The EC50 is the concentration that produces a half-maximal response. A high value points to a need for much substance.
